The target of this assay is soluble recombinant cynomolgus TCR alpha/beta-zipper protein (cynomolgus/rhesus monkey). As to the kind of experiment: ELISA, 2 µg/mL coated soluble recombinant cynomolgus TCR α/β-zipper protein, OD 450 nm. (In general: In an ELISA, binding on a coated surface is turned into a signal by an enzyme label.)

This is an account of results in patent US20190112392A1.

One may read the EC50 (read off the curve) as the concentration giving half of the maximal effect.

Sequence of soluble recombinant cynomolgus TCR alpha/beta-zipper protein (cynomolgus/rhesus monkey) (TCR alpha, as listed by the source, chain 1 of 2): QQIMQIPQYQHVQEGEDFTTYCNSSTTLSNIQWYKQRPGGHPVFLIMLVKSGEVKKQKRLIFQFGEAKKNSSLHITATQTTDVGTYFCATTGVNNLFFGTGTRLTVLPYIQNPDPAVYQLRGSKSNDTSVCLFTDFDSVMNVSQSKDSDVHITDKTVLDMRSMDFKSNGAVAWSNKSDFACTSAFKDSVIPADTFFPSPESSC
Sequence of soluble recombinant cynomolgus TCR alpha/beta-zipper protein (cynomolgus/rhesus monkey) (TCR beta, as listed by the source, chain 2 of 2): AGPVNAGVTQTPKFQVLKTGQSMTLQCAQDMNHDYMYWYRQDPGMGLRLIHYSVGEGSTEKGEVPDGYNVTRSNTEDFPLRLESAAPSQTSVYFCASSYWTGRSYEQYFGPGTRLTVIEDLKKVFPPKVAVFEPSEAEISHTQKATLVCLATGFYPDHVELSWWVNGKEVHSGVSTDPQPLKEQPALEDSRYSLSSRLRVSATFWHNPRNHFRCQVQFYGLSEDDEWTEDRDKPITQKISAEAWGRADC

As for “anti-non-human primate/Rat TCRα/β antibody clone R73”, the EC50 (read off the curve) turned out to be 0.1 nM.
